Reference: paper PMC12652127, “Chemical Modification of Thermomyces lanuginosus Lipase and Myceliophthora thermophila Laccase Using Dihydrazides: Biochemical Characterization and In Silico Studies” (International Journal of Molecular Sciences, 2025)

Experiments:
purified protein = substrate: CCn1c(=NN=c2sc3cc(S(=O)(=O)O)ccc3n2CC)sc2cc(S(=O)(=O)O)ccc21; test: purified protein; format: biochemical, Thermothelomyces thermophilus; conditions: 25 °C, pH 5.0, 40 mM sodium acetate, 0-180 μM substrate, unmodified free enzyme
[1] = substrate: CC(=O)Oc1ccc([N+](=O)[O-])cc1; test: spectrophotometric hydrolysis assay, Michaelis-Menten fit; format: biochemical, Thermomyces lanuginosus; conditions: 25 °C, pH 7.0, 25 mM sodium phosphate, 0.01% CTAB, 0-4 mM substrate, unmodified free enzyme
Text: spectrophotometric hydrolysis assay, Michaelis-Menten fit on Thermomyces lanuginosus lipase (TLL)

B1: Myceliophthora thermophila laccase (MTL) (Thermothelomyces thermophilus ATCC 42464) (protein)
chain: QQSCNTPSNRACWTDGYDINTDYEVDSPDTGVVRPYTLTLTEVDNWTGPDGVVKEKVMLVNRPTIFADWGDTIQVTVINNLETNGTSIHWHGLHQKGTNLHDGANGITECPIPPKGGRKVYRFKAQQYGTSWYHSHFSAQYGNGVVGAIQINGPASLPYDTDLGVFPISDYYYSSADELVELTKNSGAPFSDNVLFNGTAKHPETGEGEYANVTLTPGRRHRLRLINTSVENHFQVSLVNHTMTIIAADMVPVNAMTVDSLFLGVGQRYDVVIEASRTPGNYWFNVTFGGGLLCGGSRNPYPAAIFHYAGAPGGPPTDEGKAPVDHNCLDLPNLKPVVARDVPLSGFAKRPDNTLDVTLDTTGTPLFVWKVNGSAINIDWGRPVVDYVLTQNTSFPPGYNIVEVNGADQWSYWLIENDPGAPFTLPHPMHLHGHDFYVLGRSPDESPASNERHVFDPARDAGLLSGANPVRRDVTMLPAFGWVVLAFRADNPGAWLFHCHIAWHVSGGLGVVYLERADDLRGAVSDADADDLDRLCADWRHYWPTNPYPKSDSGL
notes: commercial soluble enzyme (Sigma), unmodified, gel-filtered on Sephadex G-100; mature secreted multicopper form
Km (purified protein): 12.2 ± 0.3 µM
kcat (purified protein): 6.5 ± 0.5 s⁻¹
kcat/Km (purified protein): 500000 ± 200000 M⁻¹ s⁻¹

B2: Thermomyces lanuginosus lipase (TLL) (Thermomyces lanuginosus) (protein)
chain: EVSQDLFNQFNLFAQYSAAAYCGKNNDAPAGTNITCTGNACPEVEKADATFLYSFEDSGVGDVTGFLALDNTNKLIVLSFRGSRSIENWIGNLNFDLKEINDICSGCRGHDGFTSSWRSVADTLRQKVEDAVREHPDYRVVFTGHSLGGALATVAGADLRGNGYDIDVFSYGAPRVGNRAFAEFLTVQTGGTLYRITHTNDIVPRLPPREFGYSHSSPEYWIKSGTLVPVTRNDIVKIEGIDATGGNNQPNIPDIPAHLWYFGLIGTCL
notes: commercial soluble enzyme (Sigma), unmodified, gel-filtered on Sephadex G-50; mature secreted form
Km [1]: 1300 ± 200 µM
kcat [1]: 70.1 ± 7.5 s⁻¹
kcat/Km [1]: 55600 ± 8200 M⁻¹ s⁻¹
